Test results published in CN113512111A (BEIJING MABWORKS BIOTECH CO LTD, dated 2021).

Experiments:
[1] = target: T1, 埃博拉GP蛋白 on 埃博拉假病毒(扎伊尔型) (HIV-backbone luciferase pseudovirus) (埃博拉病毒(扎伊尔型) (Zaire ebolavirus), UniProt Q05320 33-676); assay: cell-based or functional assay
T1 sequence: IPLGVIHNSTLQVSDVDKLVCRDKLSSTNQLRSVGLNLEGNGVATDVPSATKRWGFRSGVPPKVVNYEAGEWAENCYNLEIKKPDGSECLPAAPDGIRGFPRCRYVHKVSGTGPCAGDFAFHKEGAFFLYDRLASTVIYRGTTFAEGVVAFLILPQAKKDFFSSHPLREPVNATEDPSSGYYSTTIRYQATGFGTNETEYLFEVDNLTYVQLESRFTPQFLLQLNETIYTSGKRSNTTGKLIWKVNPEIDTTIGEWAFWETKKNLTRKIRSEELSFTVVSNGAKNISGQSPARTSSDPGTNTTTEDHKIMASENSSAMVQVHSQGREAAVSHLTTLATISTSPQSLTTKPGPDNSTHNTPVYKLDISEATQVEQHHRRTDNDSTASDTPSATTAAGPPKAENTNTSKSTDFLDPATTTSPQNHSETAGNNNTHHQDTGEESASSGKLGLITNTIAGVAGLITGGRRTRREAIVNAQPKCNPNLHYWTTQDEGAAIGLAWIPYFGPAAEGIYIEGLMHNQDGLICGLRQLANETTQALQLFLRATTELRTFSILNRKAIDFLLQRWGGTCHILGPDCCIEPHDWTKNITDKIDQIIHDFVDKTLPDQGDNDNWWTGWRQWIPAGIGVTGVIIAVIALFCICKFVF

FcγRIIIa(158V) = FcγRIIIa(158V) (UniProt P08637 17-208)
C1q蛋白 = C1q蛋白 (UniProt P02745 23-245; P02746 28-253; P02747 29-245)
[2] = target: T2, 埃博拉病毒表面抗原GP蛋白 (soluble GP used as the analyte in BIAcore) (埃博拉病毒 (Ebola virus), UniProt Q05320 33-650)
T2 sequence: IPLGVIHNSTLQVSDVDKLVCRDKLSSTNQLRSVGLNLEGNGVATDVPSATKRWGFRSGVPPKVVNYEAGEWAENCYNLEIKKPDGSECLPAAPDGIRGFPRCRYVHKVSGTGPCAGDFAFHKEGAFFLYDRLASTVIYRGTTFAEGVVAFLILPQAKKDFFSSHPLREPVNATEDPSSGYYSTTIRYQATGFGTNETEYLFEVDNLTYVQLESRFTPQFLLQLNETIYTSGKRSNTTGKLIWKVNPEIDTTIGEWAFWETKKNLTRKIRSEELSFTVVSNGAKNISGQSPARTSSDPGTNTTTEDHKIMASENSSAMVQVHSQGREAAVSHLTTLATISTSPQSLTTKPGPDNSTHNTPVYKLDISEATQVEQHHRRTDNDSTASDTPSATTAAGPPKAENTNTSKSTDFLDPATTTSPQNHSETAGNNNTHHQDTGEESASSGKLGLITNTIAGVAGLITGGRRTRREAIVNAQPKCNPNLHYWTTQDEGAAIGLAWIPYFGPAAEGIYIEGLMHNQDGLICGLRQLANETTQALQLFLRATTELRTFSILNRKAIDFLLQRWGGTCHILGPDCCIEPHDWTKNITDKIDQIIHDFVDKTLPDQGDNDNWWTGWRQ

Chain of C1q蛋白 (P02745 23-245 limits assumed, chain 1 of 3): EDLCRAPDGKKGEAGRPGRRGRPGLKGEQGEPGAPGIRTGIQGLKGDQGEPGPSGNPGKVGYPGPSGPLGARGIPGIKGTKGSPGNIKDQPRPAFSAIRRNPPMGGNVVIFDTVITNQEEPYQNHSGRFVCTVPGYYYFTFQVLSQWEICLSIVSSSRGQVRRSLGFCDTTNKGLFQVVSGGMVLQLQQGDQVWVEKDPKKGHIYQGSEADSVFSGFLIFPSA
Chain of C1q蛋白 (P02746 28-253 limits assumed, chain 2 of 3): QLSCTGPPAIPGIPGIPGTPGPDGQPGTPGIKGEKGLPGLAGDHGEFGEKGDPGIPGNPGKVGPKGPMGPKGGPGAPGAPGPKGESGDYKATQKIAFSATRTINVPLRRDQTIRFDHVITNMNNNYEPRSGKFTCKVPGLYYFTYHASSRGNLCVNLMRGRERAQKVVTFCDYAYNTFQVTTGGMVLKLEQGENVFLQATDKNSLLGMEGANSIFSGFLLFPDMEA
Chain of C1q蛋白 (P02747 29-245 limits assumed, chain 3 of 3): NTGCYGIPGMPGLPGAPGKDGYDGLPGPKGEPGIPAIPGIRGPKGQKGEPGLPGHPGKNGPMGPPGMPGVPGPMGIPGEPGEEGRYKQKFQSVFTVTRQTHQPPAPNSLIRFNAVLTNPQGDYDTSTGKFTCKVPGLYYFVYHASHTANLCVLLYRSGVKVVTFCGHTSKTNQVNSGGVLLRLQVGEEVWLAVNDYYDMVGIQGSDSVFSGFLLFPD
Chain of FcγRIIIa(158V) (P08637 17-208 F176V limits assumed): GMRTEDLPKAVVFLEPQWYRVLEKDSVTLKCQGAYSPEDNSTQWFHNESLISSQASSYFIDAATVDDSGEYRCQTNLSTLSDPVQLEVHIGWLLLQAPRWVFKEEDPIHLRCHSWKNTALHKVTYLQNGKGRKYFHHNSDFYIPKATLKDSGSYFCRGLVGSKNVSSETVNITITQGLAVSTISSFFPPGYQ

Row | Binder | 体外假病毒感染细胞中和活性 半数抑制浓度(IC50), HEK293细胞体系, batch M20141202 [1] [µg/mL] | 体外假病毒感染细胞中和活性 半数抑制浓度(IC50), Huh7细胞体系, luciferase reporter [1] [µg/mL] | EC50 (FcγRIIIa(158V)) [µg/mL] | EC50 (C1q蛋白) [µg/mL] | Kd [2] [nM] | 体外假病毒感染细胞中和活性 半数抑制浓度(IC50), HEK293细胞体系, batch M20141203 [1] [µg/mL] | 体外假病毒感染细胞中和活性 半数抑制浓度(IC50), HEK293细胞体系, batch M20150101 [1] [µg/mL]
1 | 抗体MIL77-1 (anti-Ebola virus glycoprotein monoclonal antibody, afucosylated, made in CHOK1-AF cells) (antibody) heavy: not shown light: DIQMTQSPASLSVSVGETVSITCRASENIYSSLAWYQQKQGKSPQLLVYSATILADGVPSRFSGSGSGTQYSLKINSLQSEDFGTYYCQHFWGTPYTFGGGTKLEIKRTVAAPSVFIFPPSDEQLKSGTASVVCLLNNFYPREAKVQWKVDNALQSGNSQESVTEQDSKDSTYSLSSTLTLSKADYEKHKVYACEVTHQGLSSPVTKSFNRGEC | 4.59 | 0.799 | 0.062 to 0.064 | 0.818 to 0.96 | 50.6 to 53.8 |  | 
2 | 抗体MIL77-2 (anti-Ebola virus glycoprotein monoclonal antibody, afucosylated, made in CHOK1-AF cells) (antibody) heavy: not shown light: DIQMTQSPASLSASVGETVTITCRASENIYSYLAWYQQKQGKSPQLLVYNAKTLIEGVPSRFSGSGSGTQFSLKINSLQPEDFGSYFCQHHFGTPFTFGSGTELEIKRTVAAPSVFIFPPSDEQLKSGTASVVCLLNNFYPREAKVQWKVDNALQSGNSQESVTEQDSKDSTYSLSSTLTLSKADYEKHKVYACEVTHQGLSSPVTKSFNRGEC | 0.058 | 0.359 | 0.054 to 0.073 | 0.772 to 0.968 | 31.9 to 36.2 | 0.023 | 0.017
